# B1: Sis7d (natural protein)
# chain: MTTVKFKYKGEEKQVDTSKIKKVWRVGKMISFTYDEGGGKTGRGAVSEKDAPKELLQMLEKQKK
# Target: the molecule itself
# Experiment: cross-linking; 10 ug protein in 10 ul, 1 mM DSP, 30 min at 25°C, 20 mM HEPES-KOH pH 7.6, 50 mM KCl, without or with pUC18 DNA (protein/DNA mass ratios 1:1 and 1:5); non-reducing 15% SDS-PAGE, Coomassie
protein,measurement,value
B1,stoichiometry N,2

# Reference: paper PMC7373190, “Archaeal Chromatin Proteins Cren7 and Sul7d Compact DNA by Bending and Bridging” (mBio, 2020)
